Test results: IntAct's records for PubMed 12681510

B1: Rho guanine nucleotide exchange factor 1 (Homo sapiens), Q92888 (parent)
chain: MEDFARGAASPGPSRPGLVPVSIIGAEDEDFENELETNSEEQNSQFQSLEQVKRRPAHLMALLQHVALQFEPGPLLCCLHADMLGSLGPKEAKKAFLDFYHSFLEKTAVLRVPVPPNVAFELDRTRADLISEDVQRRFVQEVVQSQQVAVGRQLEDFRSKRLMGMTPWEQELAQLEAWVGRDRASYEARERHVAERLLMHLEEMQHTISTDEEKSAAVVNAIGLYMRHLGVRTKSGDKKSGRNFFRKKVMGNRRSDEPAKTKKGLSSILDAARWNRGEPQVPDFRHLKAEVDAEKPGATDRKGGVGMPSRDRNIGAPGQDTPGVSLHPLSLDSPDREPGADAPLELGDSSPQGPMSLESLAPPESTDEGAETESPEPGDEGEPGRSGLELEPEEPPGWRELVPPDTLHSLPKSQVKRQEVISELLVTEAAHVRMLRVLHDLFFQPMAECLFFPLEELQNIFPSLDELIEVHSLFLDRLMKRRQESGYLIEEIGDVLLARFDGAEGSWFQKISSRFCSRQSFALEQLKAKQRKDPRFCAFVQEAESRPRCRRLQLKDMIPTEMQRLTKYPLLLQSIGQNTEEPTEREKVELAAECCREILHHVNQAVRDMEDLLRLKDYQRRLDLSHLRQSSDPMLSEFKNLDITKKKLVHEGPLTWRVTKDKAVEVHVLLLDDLLLLLQRQDERLLLKSHSRTLTPTPDGKTMLRPVLRLTSAMTREVATDHKAFYVLFTWDQEAQIYELVAQTVSERKNWCALITETAGSLKVPAPASRPKPRPSPSSTREPLLSSSENGNGGRETSPADARTERILSDLLPFCRPGPEGQLAATALRKVLSLKQLLFPAEEDNGAGPPRDGDGVPGGGPLSPARTQEIQENLLSLEETMKQLEELEEEFCRLRPLLSQLGGNSVPQPGCT

Variants of: B1
Conditions: with gna13_human GNA13, Q14344
Chain of gna13_human GNA13, Q14344 (Q14344 whole entry): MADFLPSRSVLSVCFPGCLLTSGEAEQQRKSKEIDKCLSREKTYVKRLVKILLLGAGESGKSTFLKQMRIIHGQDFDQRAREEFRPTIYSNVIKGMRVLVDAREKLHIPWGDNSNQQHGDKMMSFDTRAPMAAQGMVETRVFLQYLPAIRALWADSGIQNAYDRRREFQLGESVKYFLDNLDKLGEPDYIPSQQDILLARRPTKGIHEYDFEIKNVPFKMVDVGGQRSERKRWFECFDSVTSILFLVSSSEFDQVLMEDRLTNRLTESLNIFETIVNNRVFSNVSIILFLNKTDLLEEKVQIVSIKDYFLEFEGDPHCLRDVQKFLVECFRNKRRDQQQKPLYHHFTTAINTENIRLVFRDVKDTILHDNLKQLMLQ

effect of a mutation on the interaction | Variant
decreasing interaction | E27A;E29A

Variants of: B1
Conditions: with gna13_human GNA13, Q14344
Remark: another data set of the same source

effect of a mutation on the interaction | Variant
decreasing interaction | E27A;E29A
